Source: publication doi:10.1101/2021.09.30.462597 (bioRxiv, 2021)
Changes are numbered by the printed parent chain. Names and notes keep the numbering of the source. Like-named read-outs stand apart in the source and are kept apart here.

B1: Kif7-DM-GFP (1-543aa), dimeric Kif7 protein (domain or fragment, human, UniProt Q2M1P5 1-543, looked up)
chain: MGLEAQRLPGAEEAPVRVALRVRPLLPKELLHGHQSCLQVEPGLGRVTLGRDRHFGFHVVLAEDAGQEAVYQACVQPLLEAFFEGFNATVFAYGQTGSGKTYTMGEASVASLLEDEQGIVPRAMAEAFKLIDENDLLDCLVHVSYLEVYKEEFRDLLEVGTASRDIQLREDERGNVVLCGVKEVDVEGLDEVLSLLEMGNAARHTGATHLNHLSSRSHTVFTVTLEQRGRAPSRLPRPAPGQLLVSKFHFVDLAGSERVLKTGSTGERLKESIQINSSLLALGNVISALGDPQRRGSHIPYRDSKITRILKDSLGGNAKTVMIACVSPSSSDFDETLNTLNYASRAQNIRNRATVNWRPEAERPPEETASGARGPPRHRSETRIIHRGRRAPGPATASAAAAMRLGAECARYRACTDAAYSLLRELQAEPGLPGAAARKVRDWLCAVEGERSALSSASGPDSGIESASVEDQAAQGAGGRKEDEGAQQLLTLQNQVARLEEENRDFLAALEDAMEQYKLQSDRLREQQEEMVELRLRLELVRP
B2: Kif7-CC-GFP (domain or fragment, human, UniProt Q2M1P5 460-600, looked up)
chain: PDSGIESASVEDQAAQGAGGRKEDEGAQQLLTLQNQVARLEEENRDFLAALEDAMEQYKLQSDRLREQQEEMVELRLRLELVRPGWGGPRLLNGLPPGSFVPRPHTAPLGGAHAHVLGMVPPACLPGDEVGSEQRGEQVTN
B3: Gli2-ZF-SNAP (domain or fragment, human, UniProt P10070 418-604, looked up)
chain: KEDLDRDDCKQEAEVVIYETNCHWEDCTKEYDTQEQLVHHINNEHIHGEKKEFVCRWQACTREQKPFKAQYMLVVHMRRHTGEKPHKCTFEGCSKAYSRLENLKTHLRSHTGEKPYVCEHEGCNKAFSNASDRAKHQNRTHSNEKPYICKIPGCTKRYTDPSSLRKHVKTVHGPDAHVTKKQRNDVH
modifications: Alexa-647 label (in the TIRF assays)
B4: Kif7-DM(E502A)-GFP (domain or fragment, human, UniProt Q2M1P5 1-543, looked up)
chain: B1 chain with E502A
B5: GST-Kif7-CC (460-600aa) (domain or fragment, human, UniProt Q2M1P5 460-600, looked up)
chain: B2 chain
B6: GST-Kif7-SCC (481-543aa) (domain or fragment, human, UniProt Q2M1P5 481-543, looked up)
chain: KEDEGAQQLLTLQNQVARLEEENRDFLAALEDAMEQYKLQSDRLREQQEEMVELRLRLELVRP
B7: GST-Kif7-CC D505A (domain or fragment, human, UniProt Q2M1P5 460-600, looked up)
chain: B2 chain with D46A
B8: GFP-tagged GST-Kif7-CC (domain or fragment, human, UniProt Q2M1P5 460-600, looked up)
chain: B2 chain

Experiments:
[1] = biological target: Kif27M-Kif7CC chimera (GFP) (human); assay: SEC
[2] = biological target: Kif7M-Kif27CC chimera (GFP) (human); assay: SEC
[3] = biological target: GDP-taxol stabilized microtubules from bovine tubulin (co-sedimentation) (bovine) (UniProt Q6B856); assay: co-sedimentation
[4] = biological target: T1, Gli2-ZF-GFP (human, UniProt P10070 418-604); assay: SEC
T1 sequence (looked up): B3 chain

[5] = biological target: GDP-taxol stabilized microtubules from bovine tubulin (co-sedimentation) (bovine) (UniProt Q6B856); assay: co-sedimentation; remark: listed apart in the source
[6] = biological target: B4; assay: TIRF microscopy of proteins on immobilised microtubules
[7] = biological target: B1; assay: as above
[8] = biological target: the molecule itself; assay: SEC
[9] = biological target: T2, Gli2-ZF, zinc-finger domain of Gli2 (recombinant) (human, UniProt P10070 418-604); assay: BLI
T2 sequence (looked up): B3 chain

[10] = biological target: the molecule itself; assay: single molecule fluorescence intensity and photobleaching analysis

Q: Which stoichiometry N [1] does the source give for Kif27M-Kif7CC chimera (GFP) here?
A: 2

Q: How did the stoichiometry N [2] turn out when Kif7M-Kif27CC chimera (GFP) was run?
A: 2

Q: Which Kd [3] does the source give for B1 here?
A: 4230 nM

Q: And the “stoichiometry N” value [4]?
A: 1 Kif7-DM per Gli2-ZF

Q: What about the Kd [5] of the same molecule?
A: 540 nM

Q: With B2 as the molecule, how does the “stoichiometry N” value [4] read?
A: 2 Kif7-CC-GFP per Gli2-ZF-GFP

Q: What does the source list for B3?
A: binding result [6]: binds; fold above the background fluorescence of Gli alone on microtubules [7]: ~3 fold

Q: How did the “stoichiometry N” value [8] turn out when B4 was run?
A: 2

Q: Which Kd [9] does the source give for B5 here?
A: 48 ± 5 nM

Q: With B6 as the molecule, how does the Kd [9] read?
A: 69 ± 20 nM

Q: Does B7 bind [9]?
A: binds

Q: How did the “stoichiometry N” value [10] turn out when B8 was run?
A: 2
